Test results published in US20220054646A1 (Bicycle, published 2022).
*1 amine or outer side, *2 acyl side, *3 side chain or, on linkers, in order; H or OH if unused. Bridges are numbered along the chain shown (N, C = ends). Where no end group is shown, it is not given here. TBMB = c1c(C[*:1])cc(C[*:3])cc1C[*:2]

Legend:
[1] = molecular target: T1, Prostate-specific membrane antigen (PSMA) (human, UniProt Q04609 44-750, limits assumed); assay: fluorescence polarization assay, FP(h), PSMA
T1 construct: the construct used in the fluorescence polarization and enzyme assays is not described (methods cited from Shen et al 2013 and WO 2009/070302); also called Glutamate carboxypeptidase II; GCPII
Method: PSMA binding was measured using the fluorescence polarization assay methodology described in Shen et al (2013) PLOS ONE 8(7), e68339 and PSMA enzyme inhibition was measured using the methodology described in WO 2009/070302.

[2] = molecular target: T1, Prostate-specific membrane antigen …; assay: cell-based or functional assay

T1 sequence (Q04609 44-750 limits assumed): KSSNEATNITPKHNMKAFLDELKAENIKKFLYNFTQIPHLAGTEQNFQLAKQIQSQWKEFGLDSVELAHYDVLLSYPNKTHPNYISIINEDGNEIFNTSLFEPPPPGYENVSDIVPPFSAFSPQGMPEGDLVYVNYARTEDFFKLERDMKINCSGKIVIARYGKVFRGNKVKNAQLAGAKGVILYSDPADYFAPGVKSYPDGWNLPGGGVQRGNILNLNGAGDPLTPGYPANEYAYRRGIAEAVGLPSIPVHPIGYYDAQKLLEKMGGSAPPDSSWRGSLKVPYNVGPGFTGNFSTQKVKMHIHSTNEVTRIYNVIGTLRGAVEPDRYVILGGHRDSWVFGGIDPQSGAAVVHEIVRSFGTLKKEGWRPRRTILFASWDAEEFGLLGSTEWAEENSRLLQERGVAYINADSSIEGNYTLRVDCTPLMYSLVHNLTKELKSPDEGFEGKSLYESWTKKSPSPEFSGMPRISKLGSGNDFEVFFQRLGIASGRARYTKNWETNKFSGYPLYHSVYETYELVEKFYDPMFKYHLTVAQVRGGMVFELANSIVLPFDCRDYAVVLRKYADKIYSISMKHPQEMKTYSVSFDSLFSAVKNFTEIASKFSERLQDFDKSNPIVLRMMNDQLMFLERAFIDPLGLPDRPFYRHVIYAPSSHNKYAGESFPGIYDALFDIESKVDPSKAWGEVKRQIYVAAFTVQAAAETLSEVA

Binder	Ki [1] [nM]	Enzyme inhibition IC50 [2] [nM]
EVCWDCFMMEDGTCAXXXXXXK (not fully specified; N-terminal acetyl (Ac); D-residue at the N-terminus (printed (D-E) / (D-Gln)); Sar6 = six sarcosine residues; C-terminal D-Lys; Ci, Cii and Ciii cyclised with TBMB (tri-substituted 1,3,5-trismethylbenzene scaffold), Bicyclic peptide on TBMB scaffold) [21-31-04-T01-N007]	30	–
CIECYIMEDGTCA (linker 1-4-12 via TBMB (inferred), Bicyclic peptide on TBMB scaffold) [21-31-01-N001]	70	–

Further binders by falling Ki [1], results first:

Ki [1] [nM]	Enzyme inhibition IC50 [2] [nM]	Binder
40	695	ACMVCHMMEDGTCA (linker 2-5-13 via TBMB (inferred), Bicyclic peptide on TBMB scaffold) [21-31-N002]
6	–	FCSECYMMEDGTCA (linker 2-5-13 via TBMB (inferred), Bicyclic peptide on TBMB scaffold) [21-31-11-T01-N001]
